Results as given in US20250051471A1 (WILLIAM ROBERT ARATHOON LIVING TRUST DATED AUGUST 29 2016, published 2025).

Experiments:
[1] = target: T1, human ABCB1 on cells (human, UniProt P08183 1-1280); test: flow cytometry, DX5 CD47 KO cells, % positive cells
T1 construct: whole, on cells; also called MDR1; Pgp

[2] = target: T1, human ABCB1 on cells; test: flow cytometry, DX5/ADR CD47 WT cells (carry both ABCB1 and CD47), % positive cells
[3] = target: T2, human CD47 on cells (human, UniProt Q08722 19-323); test: receptor occupancy assay on A2780ADR cells (carry both ABCB1 and CD47), flow cytometry; free CD47 detected with Alexa 647 anti-hCD47 CC2C6 (competitor), direct binding with PE anti-human IgG Fc
T2 construct: also called hCD47; CD47 antigen

[4] = target: T2, human CD47 on cells; test: flow cytometry on human RBC, donor D834
[5] = target: T2, human CD47 on cells; test: flow cytometry on human RBC, donor D835
[6] = target: T2, human CD47 on cells; test: flow cytometry on human RBC, donor D836
[7] = target: T2, human CD47 on cells; test: flow cytometry on human RBC, donor D837
[8] = target: T3, cynomolgus CD47 on red blood cells (cynomolgus, UniProt A0A5F8AK49 19-323 (rhesus entry)); test: flow cytometry on cynomolgus RBC, donor Cy744
T3 construct: whole, on cells; The assay target is the red blood cell; also called cynomolgus Red Blood Cells

[9] = target: T3, cynomolgus CD47 on red blood cells; test: flow cytometry on cynomolgus RBC, donor Cy745
[10] = target: T3, cynomolgus CD47 on red blood cells; test: flow cytometry on cynomolgus RBC, donor Cy746
[11] = target: T3, cynomolgus CD47 on red blood cells; test: flow cytometry on cynomolgus RBC, donor Cy747
[12] = target: T1, human ABCB1 on cells; test: flow cytometry, DX5 CD47 KO cells, % positive cells; remark: listed apart in the source
[13] = target: T1, human ABCB1 on cells; test: flow cytometry, DX5 CD47 knock-out cells ('DX5 KT14 KO'), MFI
[14] = target: T2, human CD47 on cells; test: flow cytometry, DX5 B1 KO (ABCB1 knock-out) cells, % positive cells
[15] = target: T1, human ABCB1 on cells; test: flow cytometry, DX5 WT cells (carry both ABCB1 and CD47), MFI
[16] = target: T2, human CD47 on cells; test: receptor occupancy assay on A2780ADR cells, curve 'BiS-Direct Binding' (PE anti-human IgG Fc); the cells carry both antigens, the target is named after the receptor whose free signal falls most in the same panel
[17] = target: T4, recombinant extracellular domain of human CD47-Fc fusion protein (human, UniProt Q08722 19-139); test: ELISA on plate-coated recombinant human CD47 extracellular domain-Fc, A450; x axis printed as log10 values under the unit nM
T4 construct: extracellular domain; also called huCD47 ECD; CD47-Fc fusion protein (R&D systems); not shown: Fc part of the bought fusion protein; not described

[18] = target: T2, human CD47 on cells; test: flow cytometry, DX5 B1 KO (ABCB1 knock-out) cells, % positive cells; remark: listed apart in the source
[19] = target: T1, human ABCB1 on cells; test: receptor occupancy assay on A2780ADR cells, curve 'BiS-Direct Binding' (PE anti-human IgG Fc); the cells carry both antigens, the target is named after the receptor whose free signal falls in the same panel

Binder	% Positive [4] [%]	% Positive [5] [%]	% Positive [6] [%]	% Positive [7] [%]	% Positive [8] [%]	% Positive [9] [%]	% Positive [10] [%]	% Positive [11] [%]	other results
15D3hmz HIR2/KT14 KbR1/B1VL6/CDR3v2a (bispecific antibody, human IgG1, kappa, Humanized ABCB1 x CD47 IgG1 bispecific with a common light chain) heavy 1: EVQLVESGGVVVQPGGSLRLSCAASGFTFSRYTMSWVRQAPGKGLEWVATISSGGGNTYYPDSVKGRFTVSRDNSKNSLYLQMNSLRTEDTALYYCARYGAGDAWFAYWGQGTLVTVSSASTKGPSVFPLAPSSKSTSGGTAALGCLVKDYFPEPVTVSWNSGALTSGVHTFPAVLQSSGLYSLSSVVTVPSSSLGTQTYICNVNHKPSNTKVDKRVEPKSCDKTHTCPPCPAPELLGGPSVFLFPPKPKDTLMISRTPEVTCVVVDVSHEDPEVKFNWYVDGVEVHNAKTKPREEQYNSTYRVVSVLTVLHQDWLNGKEYKCKVSNKALPAPIEKTISKAKGQPREPQVCTLPPSREEMTKNQVSLSCAVKGFYPSDIAVEWESNGQPENNYKTTPPVLDSDGSFVLVSKLTVDKSRWQQGNVFSCSVMHEALHNHYTQKSLSLSPG heavy 2: not shown light: DIVMTQSPLSLPVTPGEPASISCRSSQSLVHSNGNTYLEWYLQKPGQSPQLLIYKVSNRFSGVPDRFSGSGSGTDFTLKISRVEAEDVGVYYCFQGSHFPRTFGQGTKLEIKRTVAAPSVFIFPPSDEQLKSGTASVVCLLNNFYPREAKVQWKVDNALQSGNSQESVTEQDSKDSTYSLSSTLTLSKADYEKHKVYACEVTHQGLSSPVTKSFNRGEC	–	–	–	–	–	–	–	–	EC50 (read off the curve) [1]: ~5 nM; EC50 (read off the curve) [2]: ~0.8 nM; binding result [3]: binds
15D3 hmz DD/KT14 KK/MRK16 hmz bispecific antibody (bispecific antibody, human IgG1, the general methods state a human kappa constant region) heavy 1: not shown heavy 2: not shown VL: DIVMTQTPLSSPVTLGQPASISCRSSQSIVHSTGNTYLEWYQQRPGQPPRLLIYKISNRFSGVPDRFSGSGAGTDFTLKISRVEAEDVGVYYCFQASHFPRTFGGGTKLEIKR	–	–	–	–	–	–	–	–	EC50 (read off the curve) [17]: ~0.08 nM
ABCB1XCD47 KBisP1.1 (15D3 HC KK/KT14 HC DD/MRK16 LC) (bispecific antibody, human IgG1, kappa, also called KNJYBisP1.1) heavy 1: not shown heavy 2: not shown light: DVLMTQTPVSLSVSLGDQASISCRSSQSIVHSTGNTYLEWYLQKPGQSPKLLIYKISNRFSGVPDRFSGSGSGTDFTLKISRVEAEDLGVYYCFQASHFPRTFGGGTKLEIKRTVAAPSVFIFPPSDEQLKSGTASVVCLLNNFYPREAKVQWKVDNALQSGNSQESVTEQDSKDSTYSLSSTLTLSKADYEKHKVYACEVTHQGLSSPVTKSFNRGEC	0.4	0.4	0.3	0.5	0.5	0.7	2	3.7	EC50 (read off the curve) [13]: ~30 nM; EC50 (read off the curve) [15]: ~10 nM
KB1-1401 (bispecific antibody, human IgG1, kappa, also called 15D3DD KT14KK MRK16) heavy chain 1 (anti-ABCB1, DD): not shown heavy chain 2 (anti-CD47, KK): not shown light chain: DVLMTQTPVSLSVSLGDQASISCRSSQSIVHSTGNTYLEWYLQKPGQSPKLLIYKISNRFSGVPDRFSGSGSGTDFTLKISRVEAEDLGVYYCFQASHFPRTFGGGTKLEIKRTVAAPSVFIFPPSDEQLKSGTASVVCLLNNFYPREAKVQWKVDNALQSGNSQESVTEQDSKDSTYSLSSTLTLSKADYEKHKVYACEVTHQGLSSPVTKSFNRGEC	–	–	–	–	–	–	–	–	binding result [18]: no binding (tested: about 660 nM); EC50 (read off the curve) [19]: ~200 nM
15D3hmz16-1/KT14/MRK16v4a1 (bispecific antibody, V domains shown, Human IgG1/kappa bispecific with KK/DD charge-pair Fc; also called 15D3hmz16-1 KK/KT14 DD/MRK16v4a1 Bispecific; 15D316-1 DD/KT14 KK/MRK16v4a1 hmz LC) VH 1: EVQLVESGGVVVQPGGSLRLSCAASGFTFSRYTMSWVRQAPGKGLEWVATISSGGGNTYYPDSVKGRFTVSRDNSKNSLYLQMNSLRTEDTALYYCARYYRYDAWFAYWGQGTLVTVSS VH 2: QVQLVQSGAEVKKPGASVKVSCKASGYTFTNYNMHWVRQAPGQRLEWMGTIYPGNDDTSYNQKFKDRVTITADTSASTAYMELSSLRSEDTAVYYCARGGYRAMDYWGQGTLVTVSS VL: DIVMTQTPLSSPVTLGQPASISCRSSQSIVHSTGNTYLEWYQQKPGQPPRLLIYKISNRFSGVPDRFSGSGSGTDFTLKISRVEAEDVGVYYCFQASHFPRTFGQGTKLEIK	–	–	–	–	0.4	0.4	1.5	5.7	–

Further lines, with some results ahead:

% Positive [4] [%]	% Positive [5] [%]	% Positive [6] [%]	% Positive [7] [%]	% Positive [8] [%]	% Positive [9] [%]	% Positive [10] [%]	% Positive [11] [%]	Binder	other results
2	1.4	1.1	1.6	7.9	10.6	57.7	74.5	15D3 hmz HIR2/KT14 KbR1/B1.89v1.huL1(KV2) (bispecific antibody, human IgG1, kappa, Humanized ABCB1 x CD47 IgG1 bispecific with a common light chain) heavy 1: EVQLVESGGVVVQPGGSLRLSCAASGFTFSRYTMSWVRQAPGKGLEWVATISSGGGNTYYPDSVKGRFTVSRDNSKNSLYLQMNSLRTEDTALYYCARYGAGDAWFAYWGQGTLVTVSSASTKGPSVFPLAPSSKSTSGGTAALGCLVKDYFPEPVTVSWNSGALTSGVHTFPAVLQSSGLYSLSSVVTVPSSSLGTQTYICNVNHKPSNTKVDKRVEPKSCDKTHTCPPCPAPELLGGPSVFLFPPKPKDTLMISRTPEVTCVVVDVSHEDPEVKFNWYVDGVEVHNAKTKPREEQYNSTYRVVSVLTVLHQDWLNGKEYKCKVSNKALPAPIEKTISKAKGQPREPQVCTLPPSREEMTKNQVSLSCAVKGFYPSDIAVEWESNGQPENNYKTTPPVLDSDGSFVLVSKLTVDKSRWQQGNVFSCSVMHEALHNHYTQKSLSLSPG heavy 2: not shown light: DIVMTQSPLSLPVTPGEPASISCRSSQTIVHSNGNTYLEWYLQKPGQSPQLLIYKVSKRFSGVPDRFSGSGSGTDFTLKISRVEAEDVGVYYCFQASHFPRTFGQGTKLEIKRTVAAPSVFIFPPSDEQLKSGTASVVCLLNNFYPREAKVQWKVDNALQSGNSQESVTEQDSKDSTYSLSSTLTLSKADYEKHKVYACEVTHQGLSSPVTKSFNRGEC	EC50 (read off the curve) [12]: ~0.4 nM; EC50 (read off the curve) [13]: ~50 nM; EC50 (read off the curve) [14]: ~30 nM; EC50 (read off the curve) [15]: ~30 nM; EC50 (read off the curve) [16]: ~200 nM
99.1	98.9	98.9	99.1	99	98.8	99.4	99	anti-CD47 monoclonal antibody 5F9 (antibody, IgG1, V domains shown, also called KT14; 5F9 KT14 mAb) VH: QVQLVQSGAEVKKPGASVKVSCKASGYTFTNYNMHWVRQAPGQRLEWMGTIYPGNDDTSYNQKFKDRVTITADTSASTAYMELSSLRSEDTAVYYCARGGYRAMDYWGQGTLVTVSS VL: DIVMTQSPLSLPVTPGEPASISCRSSQSIVYSNGNTYLGWYLQKPGQSPQLLIYKVSNRFSGVPDRFSGSGSGTDFTLKISRVEADVGVYYCFQGSHVPYTFGQGTKLEIK	EC50 (read off the curve) [17]: ~0.003 nM
0.4	–	–	–	–	–	–	–	15D3hmz16-1/KT14/MRK16v4a12 (bispecific antibody, V domains shown, Human IgG1/kappa bispecific) VH 1: EVQLVESGGVVVQPGGSLRLSCAASGFTFSRYTMSWVRQAPGKGLEWVATISSGGGNTYYPDSVKGRFTVSRDNSKNSLYLQMNSLRTEDTALYYCARYYRYDAWFAYWGQGTLVTVSS VH 2: QVQLVQSGAEVKKPGASVKVSCKASGYTFTNYNMHWVRQAPGQRLEWMGTIYPGNDDTSYNQKFKDRVTITADTSASTAYMELSSLRSEDTAVYYCARGGYRAMDYWGQGTLVTVSS VL: DIVMTQTPLSSPVTLGQPASISCRSSQSIVHSTGNTYLEWYQQKPGQPPRLLIYKVSNRFSGVPDRFSGSGSGTDFTLKISRVEAEDVGVYYCFQASHFPRTFGQGTKLEIK	–
